Source: patent US20210388105A1 (ELPISCIENCE SUZHOU BIOPHARMA, published 2021)

T1: KW27-15 (human CD39 mutant, C-terminal EGFP) (human, UniProt P49961 1-510)
T1 construct: expressed on HEK293F cells; not shown: C-terminal EGFP fusion (vector pCMV3-GFPSpark)
T1 chain: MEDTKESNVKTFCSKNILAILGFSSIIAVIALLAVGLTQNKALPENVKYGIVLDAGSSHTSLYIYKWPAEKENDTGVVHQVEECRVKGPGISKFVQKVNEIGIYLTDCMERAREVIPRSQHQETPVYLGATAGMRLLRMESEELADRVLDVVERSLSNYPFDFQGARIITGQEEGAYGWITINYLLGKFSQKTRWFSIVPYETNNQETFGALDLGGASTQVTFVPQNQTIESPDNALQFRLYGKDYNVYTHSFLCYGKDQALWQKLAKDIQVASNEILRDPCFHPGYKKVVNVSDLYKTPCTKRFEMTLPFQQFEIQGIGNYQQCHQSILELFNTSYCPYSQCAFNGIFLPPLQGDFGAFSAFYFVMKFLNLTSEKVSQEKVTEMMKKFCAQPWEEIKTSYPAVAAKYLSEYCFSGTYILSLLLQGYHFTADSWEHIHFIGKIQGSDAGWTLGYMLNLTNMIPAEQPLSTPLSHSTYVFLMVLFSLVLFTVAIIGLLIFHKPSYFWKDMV

T2: kw27 (Intracellular C-terminal EGFP fusion, left out of the letters)
T2 construct: not shown: C-terminal EGFP (GFPSpark) reporter of vector pCMV3-GFPSpark and any linker to it
T2 chain: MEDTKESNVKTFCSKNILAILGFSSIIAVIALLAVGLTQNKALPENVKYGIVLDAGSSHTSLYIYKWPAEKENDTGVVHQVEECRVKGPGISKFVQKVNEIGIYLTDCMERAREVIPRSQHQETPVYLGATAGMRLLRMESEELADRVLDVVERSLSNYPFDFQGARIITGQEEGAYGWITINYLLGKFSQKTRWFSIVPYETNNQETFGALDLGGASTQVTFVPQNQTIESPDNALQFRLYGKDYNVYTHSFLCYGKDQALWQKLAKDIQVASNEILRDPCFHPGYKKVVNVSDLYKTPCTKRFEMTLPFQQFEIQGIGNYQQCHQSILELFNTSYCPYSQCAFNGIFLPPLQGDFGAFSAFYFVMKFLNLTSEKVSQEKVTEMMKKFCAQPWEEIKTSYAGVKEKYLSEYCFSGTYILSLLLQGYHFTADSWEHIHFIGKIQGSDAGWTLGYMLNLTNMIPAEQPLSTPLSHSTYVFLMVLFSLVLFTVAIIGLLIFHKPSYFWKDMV

T3: KW27-6 (human CD39 mutant, C-terminal EGFP) (human, UniProt P49961 1-510)
T3 construct: expressed on HEK293F cells; not shown: C-terminal EGFP fusion (vector pCMV3-GFPSpark)
T3 chain: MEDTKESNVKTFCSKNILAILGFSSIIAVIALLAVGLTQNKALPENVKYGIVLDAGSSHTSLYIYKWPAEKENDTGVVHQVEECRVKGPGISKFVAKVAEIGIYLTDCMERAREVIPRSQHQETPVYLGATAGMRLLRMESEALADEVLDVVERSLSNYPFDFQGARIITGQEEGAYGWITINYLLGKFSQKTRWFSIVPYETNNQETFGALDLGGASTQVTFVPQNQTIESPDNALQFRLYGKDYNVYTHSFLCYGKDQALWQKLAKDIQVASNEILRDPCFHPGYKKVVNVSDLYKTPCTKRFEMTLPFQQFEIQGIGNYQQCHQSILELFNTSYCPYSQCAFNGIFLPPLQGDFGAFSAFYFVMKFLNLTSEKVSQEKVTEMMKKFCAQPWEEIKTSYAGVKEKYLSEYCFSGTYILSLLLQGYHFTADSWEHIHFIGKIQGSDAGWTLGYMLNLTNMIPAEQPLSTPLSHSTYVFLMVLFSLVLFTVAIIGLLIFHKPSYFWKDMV

T4: KW27-20 (human CD39 mutant, C-terminal EGFP) (human, UniProt P49961 1-510)
T4 construct: expressed on HEK293F cells; not shown: C-terminal EGFP fusion (vector pCMV3-GFPSpark)
T4 chain: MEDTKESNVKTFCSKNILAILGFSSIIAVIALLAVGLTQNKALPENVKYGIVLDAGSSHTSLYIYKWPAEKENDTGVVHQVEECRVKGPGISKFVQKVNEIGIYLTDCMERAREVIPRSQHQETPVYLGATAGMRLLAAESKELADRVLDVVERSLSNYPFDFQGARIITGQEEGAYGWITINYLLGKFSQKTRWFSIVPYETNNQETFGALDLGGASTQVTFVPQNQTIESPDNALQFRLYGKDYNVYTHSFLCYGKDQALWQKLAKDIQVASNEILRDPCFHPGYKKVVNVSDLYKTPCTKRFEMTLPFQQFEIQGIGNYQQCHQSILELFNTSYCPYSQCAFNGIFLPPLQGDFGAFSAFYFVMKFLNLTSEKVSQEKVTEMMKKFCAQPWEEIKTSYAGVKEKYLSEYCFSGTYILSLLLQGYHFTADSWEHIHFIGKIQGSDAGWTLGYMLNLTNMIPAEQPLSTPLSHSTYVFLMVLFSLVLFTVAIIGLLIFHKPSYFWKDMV


Columns and labels:
[1] = molecular target: T1, KW27-15 (human CD39 mutant, C-terminal …); test: FACS, mutant-EGFP on HEK293F cells
Outline: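 Relative binding, the ratio of AlexaFluor647 to GFP signal, was read by flow cytometry with labelled anti-hIgG. Antibody ran as an 11-point, 3-fold series starting at 100 nM. Targets were CD39 mutant–GFP fusions expressed transiently in HEK293F cells for 3 days.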

[2] = molecular target: T2, kw27; test: FACS on transfected HEK293F cells, relative binding = AlexaFluor647 / GFP
Protocol: (§1) Briefly, the human CD39 mutants were generated by gene synthesis and then cloned into an expression vector pCMV3-GFPSpark. The vectors containing the validated mutated sequences were prepared and transfected into HEK293F cells. Three days post transfection, the cells were collected to testing EGFP for transgene expression. A range of dosages of antibodies (start from 100 nM, 3-folds dilution, 11 points) were tested on the 20 generated mutants and stained by AlexFluor647 labelled anti-hIgG by FACS. Antibody binding was descripted as relative binding which is derived from AlexFluor647 intensity divided by GFP intensity.

[3] = molecular target: T3, KW27-6 (human CD39 mutant, C-terminal …); test: as above
Protocol: as §1

[4] = molecular target: T4, KW27-20 (human CD39 mutant, C-terminal …); test: as above
Protocol: as §1

Row | Binder | binding result [1] | binding result [2] | binding result [3] | binding result [4]
1 | hu23.H5L5 (antibody, V domains shown, humanized c23) VH: QVQLVQSGAEVKKPGASVKVSCKASGYNLKDTFLHWVRQAPGQGLEWMGRIDPANGNIKYDPKFQGRVTITADTSANTAYMELISLRSEDTAVYYCANSPYYYGSGYRIFDVWGQGTTVTVSS VL: QIVLTQSPATLSLSPGERATLSCSAFSSVNYMHWYQQKPGQAPRLLIYTTSNLASGIPTRFSGSGSGTSYTLTISSLEPEDFAVYYCQQRSTYPFTFGQGTKLEIK | binds | binds | no binding | –
2 | c35 (antibody, V domains shown, its making is not described; also called chimeric antibody c35) VH: EVRLQQSGAELVKPGASVKLSCTASGFNIEDTYVHWMKQRPEQGLEWIGRIDPAIDNSKYDPKFQGKATITAVSSSNTAYLQLSSLTSEDTAVYYCALYDGYNVYAMDYWGQGTSVTVSS VL: DIVMTQAAFSNPVTLGTSASISCRSSKNLLHSNGITYLYWYLQRPGQSPQLLIYRASTLASGVPNRFSGSESGTDFTLRISRVEAEDVGVYYCAQLLELPHTFGGGTKLEIK | binds | binds | binds | binds

Other lines, results leading:

Row | binding result [1] | binding result [2] | binding result [3] | binding result [4] | Binder
3 | binds | binds | no binding | binds | Antibody 9-8B (antibody, V domains shown) VH: QIQLVQSGPELKKPGETVKISCKASGYTFTHYGMNWVKQAPGKGLKWMGWINTYTGELTYADDFKGRFAFSLETSASTAYLQINNLKNEDTATYFCARRAYYRYDYVMDYWGQGTSVTVSS VL: DIVMTQSQKFMSTSVGDRVSVTCKASHNVGTNVAWYQQKPGQSPKALIYSASYRYSGVPGRFTGSGSGTDFTLTISNVQSEDLAEYFCHQYNNYPYTFGGGTKLEIK
4 | binds | binds | binds | no binding | Antibody T895 (antibody, V domains shown, also called 31895) VH: EVQLQQSGPELVKPGASVKMSCKASGYTFTDYNMHWVKQSHGRTLEWIGYIVPLNGGSTFNQKFKGRATLTVNTSSRTAYMELRSLTSEDSAAYYCARGGTRFAYWGQGTLVTVSA VL: not shown
5 | binds | binds | binds | binds | c34 (antibody, V domains shown, its making is not described; also called chimeric antibody c34) VH: EIQVQQSGPELVKPGASVKVSCKASGYSFTDYNMYWVKQSHGKSLEWIGFIDPYNGYTSYNQKFKGKATLTIDKSSSTAFMHLNSLTSEDSAVYYCAIYGYDDAYYFDYWGQGTTLTVSS VL: QIVLTQSPAIMSASPGEKVTITCSATSSVSYMHWFRQKPGTSPKLWIYSTSNLASGVPARFSGSGSGTSYSLTISRMAAEDAATYYCQQRITYPFTFGSGTKLEIT
